Molecular target: the molecule itself
Test: cryo-EM structure

B1: glutamine synthetase (GS) (enzyme)
chain: MATSASSHLNKGIKQMYMNLPQGEKIQLMYIWVDGTGEGLRCKTRTLDCDPKCVEELPEWNFDGSSTFQSEGSNSDMYLHPVAMFRDPFRRDPNKLVFCEVFKYNRKPAETNLRHSCKRIMDMVSSQHPWFGMEQEYTLMGTDGHPFGWPSNGFPGPQGPYYCGVGADKAYGRDIVEAHYRACLYAGIKITGTNAEVMPAQWEFQIGPCEGIRMGDHLWVARFILHRVCEDFGVIATFDPKPIPGNWNGAGCHTNFSTKAMREENGLRCIEEAIDKLSKRHQYHIRAYDPKGGLDNARRLTGFHETSNINDFSAGVANRSASIRIPRIVGQEKKGYFEDRRPSANCDPYAVTEAIVRTCLLNETGDEPFQYKN
stoichiometry N: 10

Reference: article doi:10.1101/2024.07.11.602936 (bioRxiv, 2024)
